Molecular target: the molecule itself
Assay: crystal structure; MicroED (electron diffraction, continuous rotation) of nano-crystals grown in Na+ buffers with MPD, protein in DM detergent; 11 crystals merged; 2.5 Å; space group I4; tetramer on the four-fold axis

B1: NaK–∆19 (NaK ion channel from Bacillus cereus with the first 19 residues truncated) (domain or fragment)
chain: KDKEFQVLFVLTILTLISGTIFYSTVEGLRPIDALYFSVVTLTTVGDGNFSPQTDFGKIFTILYIFIGIGLVFGFIHKLAVNVQLPSILSNRKKE
notes: NaK channel, Bacillus cereus, wild type with the first 19 residues truncated (about 10-kDa monomer); also called molA; molB
stoichiometry N: 4

From publication PMC6112790, “MicroED structure of the NaK ion channel reveals a Na^+ partition process into the selectivity filter” (Communications Biology, 2018)
